Results as given in PMC9005348.

Molecular target: rsGCaMP.LP294TR.ΔRSET (rsGCaMP1.1)
Test: crystal structure; crystals with domain-swapped dimers; for rsGCaMP1.1 the C2 space group, two molecules in the asymmetric unit; Ca2+-bound protein

stoichiometry N: 2
Substance: rsGCaMP.LP294TR.ΔRSET (rsGCaMP1.1)
